Results reported in US20090191187A1 (published 2009).
“And” between values parts separate entries of the source, which are not always exact repeats. Identical values can stand only once.

T1: human interleukin-1 receptor on cells (MRC-5 human embryonic lung fibroblasts; human blood cells) (human, UniProt P14778 18-569)
T1 sequence (looked up): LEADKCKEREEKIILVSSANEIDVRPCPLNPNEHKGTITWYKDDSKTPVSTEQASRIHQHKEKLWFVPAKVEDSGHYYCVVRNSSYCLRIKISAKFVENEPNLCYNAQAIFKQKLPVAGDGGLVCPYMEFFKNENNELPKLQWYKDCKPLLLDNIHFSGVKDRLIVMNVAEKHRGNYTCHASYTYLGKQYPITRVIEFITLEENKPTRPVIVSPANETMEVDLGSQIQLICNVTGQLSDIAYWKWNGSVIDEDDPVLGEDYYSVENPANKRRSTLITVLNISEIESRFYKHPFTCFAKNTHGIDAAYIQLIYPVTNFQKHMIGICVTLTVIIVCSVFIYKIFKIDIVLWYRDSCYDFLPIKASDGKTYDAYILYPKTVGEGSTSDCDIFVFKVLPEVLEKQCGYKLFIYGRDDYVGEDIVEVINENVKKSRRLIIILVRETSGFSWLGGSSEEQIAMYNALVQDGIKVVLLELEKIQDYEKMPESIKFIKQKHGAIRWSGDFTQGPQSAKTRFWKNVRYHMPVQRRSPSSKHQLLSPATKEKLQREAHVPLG

T2: recombinant soluble human type 1 IL-1 receptor (extracellular domain, glycosylated) (human, UniProt P14778 21-333, N-glycosylated (from SF9 insect cells); biotinylated in the ELISA of Examples 2 and 4c)
T2 construct: also called hIL-1R; rshIL-1R
T2 sequence: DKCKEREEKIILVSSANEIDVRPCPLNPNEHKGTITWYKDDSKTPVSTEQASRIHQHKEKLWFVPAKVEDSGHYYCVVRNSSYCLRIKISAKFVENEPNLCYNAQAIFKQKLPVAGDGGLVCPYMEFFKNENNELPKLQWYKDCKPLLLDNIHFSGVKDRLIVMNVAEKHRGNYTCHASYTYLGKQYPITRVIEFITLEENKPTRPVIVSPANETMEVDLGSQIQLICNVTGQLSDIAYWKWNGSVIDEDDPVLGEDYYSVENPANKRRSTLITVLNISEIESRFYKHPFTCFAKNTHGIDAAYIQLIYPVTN


Legend:
[1] = target: T1, human interleukin-1 receptor on cells …; test: cell-based or functional assay
[2] = target: T1, human interleukin-1 receptor on cells …; test: cell-based or functional assay; remark: listed apart in the source
[3] = target: T2, recombinant soluble human type 1 IL-1 …; test: SPR competition: IL-1R (10 nM) preincubated with DEI5/8, injected over immobilized 2D8 (competitor); first assay: immobilized 2D8
Protocol: The protein-protein interaction of anti-IL-1R antibodies with IL-1R is analyzed by surface plasmon resonance using a Biacore 3000 System. Association rates are determined by an injection of two minutes duration; dissociation rates are measured by a washing step of three minutes duration. Negative control data are subtracted from original curves for correction of system intrinsic baseline drift and for noise signal reduction. Two assay formats with the antibody and IL-1R immobilized to the chip surface are used for this study.
a) Anti-IL-1R antibody 2D8 is covalently immobilized on the chip surface (CM5) by amine coupling. IL-1R is injected in a concentration of 10 nM under mass transfer conditions in order to determine the maximum signal which serves as a reference in the inhibition studies. Inhibition of IL-1R (10 nM) binding is measured by preincubation (in HBS—P buffer for at least 20 min at room temperature) of IL-1R with increasing concentrations (0.78-100 nM) of IL-1R antagonist, IL-1beta or DEI5/8. Subsequently, the samples are injected into the flow cells and interaction with immobilized 2D8 antibody is determined.

[4] = target: T2, recombinant soluble human type 1 IL-1 …; test: ELISA on biotinylated human IL-1R on streptavidin plates
Protocol: The relative immunactivity of the antibodies as compared to 2D8 antibody was determined by ELISA. A soluble biotinylated human IL-1R was coated at room temperature for one hour to 96-well-plates (precoated with streptavidin). After blocking with BSA the antibody was diluted and added to the wells and incubated at room temperature for two hours. The plates were washed three times and incubated with horse-radish-peroxidase (POD)-conjugated rabbit-anti-rat-IgG at room temperature for one hour. After further washing the amount of bound antibody was determined by addition of TM-Blue® ([…]) and measurement of the absorbance at 370 nm.

Row | Binder | IC 50 for the inhibition of IL-8 secretion (h-IL1β stimulated MRC-5 cells) [1] | Bioassay (IC50 in relation to 2D8), Mean [2] | IC50 [3] [nM] | Bioassay (IC50 in relation to 2D8), 1st experiment [2] | Bioassay (IC50 in relation to 2D8), 2nd experiment [2] | ELISA (absorbance at 370 nm in relation to 2D8), 1st experiment [4] | ELISA (absorbance at 370 nm in relation to 2D8), 2nd experiment [4] | ELISA (absorbance at 370 nm in relation to 2D8), mean [4]
1 | antibody 2D8 (rat monoclonal antibody against human interleukin-1 receptor, from hybridoma cell line MAK<h-IL-1RI>2D8, DSM ACC 2601) (antibody, V domains shown) VH: QLQLKESGPGLVQPSQTLSLTCTVSELSLTSNSITWIRQPPGRGLEWMGMIWSNGDTDYNSAFTSRLSISRDTSKSQVFLKMNSLQTEDSAMYFCARYNYYFDYWGQGVMVTVSS VL: DIVLTQAPVLAVSLEQRATISCKASQNVDNRGVSYVHWYQQKPRQQPKLLIYKGSNLAFGVPARFSGSGSRTDFTLTIDPVETDDFATYYCQQSKGHPDTFGAGTKLEL | 7.2 pM and 1.08 ng/ml | 1 relative to 2D8 |  |  |  |  |  | 
2 | DEI5/8 (antibody, human IgG4, kappa, V domains shown, also called combination of HURDIVHv5 and HURDIVKv8) VH: QLQLQESGPGLVKPSQTLSLTCTVSGLSLTSNSITWIRQPPGKGPEWMGMIWSNGDTDYSTSLKSRLTISKDTSKSQVVLTMTNMDPVDTATYYCARYNYYFDYWGQGTLVTVSS VL: DIVLTQSPATLSLSPGERATLSCKASQNVDNRGVSYVHWYQQKPGQAPKLLIYKGSNLAFGVPSRFSGSGSGTDFTLTISSLQPEDFATYFCQQSKGHPDTFGAGTKLELKR |  | 2 relative to 2D8 | 2 | 1.7 relative to 2D8 | 2.2 relative to 2D8 | 1.4 relative to 2D8 | 1.9 relative to 2D8 | 1.7 relative to 2D8
3 | HUM2/3 (antibody, V domains shown, also called combination of HUR HuVH v2 and HUR HuVK v3) VH: QVQLQESGPGLVKPSETLSLTCTVSELSLTSNSITWIRQPPGKGLEWIGMIWSNGDTDYNSAFTSRVTISRDTSKNQFSLKLSSVTAADTAVYYCARYNYYFDYWGQGTLVTVSS VL: EIVLTQSPATLSLSPGERATISCKASQNVDNRGVSYVHWYQQKPGQQPKLLIYKGSNLAFGVPARFSGSGSRTDFTLTISSLEPEDFATYYCQQSKGHPDTFGQGTKVEIK |  | 1.2 relative to 2D8 |  | 0.8 relative to 2D8 | 1.5 relative to 2D8 | 2.2 relative to 2D8 | 2.1 relative to 2D8 | 2.2 relative to 2D8

Other lines, results leading:

Row | IC 50 for the inhibition of IL-8 secretion (h-IL1β stimulated MRC-5 cells) [1] | Bioassay (IC50 in relation to 2D8), Mean [2] | IC50 [3] [nM] | Bioassay (IC50 in relation to 2D8), 1st experiment [2] | Bioassay (IC50 in relation to 2D8), 2nd experiment [2] | ELISA (absorbance at 370 nm in relation to 2D8), 1st experiment [4] | ELISA (absorbance at 370 nm in relation to 2D8), 2nd experiment [4] | ELISA (absorbance at 370 nm in relation to 2D8), mean [4] | Binder
4 | 4.7 pM and 0.71 ng/ml |  |  |  |  |  |  |  | chimeric 2D8 (IgG1) (antibody) heavy: not shown light: DIVLTQAPVLAVSLEQRATISCKASQNVDNRGVSYVHWYQQKPRQQPKLLIYKGSNLAFGVPARFSGSGSRTDFTLTIDPVETDDFATYYCQQSKGHPDTFGAGTKLELKRTVAAPSVFIFPPSDEQLKSGTASVVCLLNNFYPREAKVQWKVDNALQSGNSQESVTEQDSKDSTYSLSSTLTLSKADYEKHKVYACEVTHQGLSSPVTKSFNRGEC
5 | 5.1 pM and 0.77 ng/ml |  |  |  |  |  |  |  | chimeric 2D8 (IgG4) (antibody) heavy: not shown light: DIVLTQAPVLAVSLEQRATISCKASQNVDNRGVSYVHWYQQKPRQQPKLLIYKGSNLAFGVPARFSGSGSRTDFTLTIDPVETDDFATYYCQQSKGHPDTFGAGTKLELKRTVAAPSVFIFPPSDEQLKSGTASVVCLLNNFYPREAKVQWKVDNALQSGNSQESVTEQDSKDSTYSLSSTLTLSKADYEKHKVYACEVTHQGLSSPVTKSFNRGEC
